Data from paper PMC11417369, “DNA sequence and chromatin differentiate sequence-specific transcription factor binding in the human malaria parasite Plasmodium falciparum”.

T1: HDP1 homeodomain-like (Plasmodium falciparum, UniProt Q8IKH4 2990-3078)
T1 sequence: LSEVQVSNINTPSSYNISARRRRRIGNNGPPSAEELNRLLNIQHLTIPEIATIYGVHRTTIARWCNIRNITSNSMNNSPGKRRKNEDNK

T2: SIP2 D1 (Plasmodium falciparum, UniProt C6KSN9 177-235)
T2 sequence: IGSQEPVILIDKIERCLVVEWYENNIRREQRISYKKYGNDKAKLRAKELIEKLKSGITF

B1: GTGCAC_negctrl_site246 (dsDNA)
DNA 1: TTAATTCTATACATAAATTATGTTTACATAAAGAAT
DNA 2: ATTCTTTATGTAAACATAATTTATGTATAGAATTAA
B2: GTGCAC_negctrl_site553 (dsDNA)
DNA 1: GGAAAATCTAATCATTTAATATTTATTTATCTAATT
DNA 2: AATTAGATAAATAAATATTAAATGATTAGATTTTCC
B3: GTGCAC_negctrl_site175 (dsDNA)
DNA 1: AAAATGTATGGAATGCTCTTTTTTAAGTATTATATA
DNA 2: TATATAATACTTAAAAAAGAGCATTCCATACATTTT
B4: GTGCAC_negctrl_site285 (dsDNA)
DNA 1: AAAATATTATTACAGAAACAAAAAGAAAAATATATA
DNA 2: TATATATTTTTCTTTTTGTTTCTGTAATAATATTTT
B5: GTGCAC_negctrl_site633 (dsDNA)
DNA 1: AAAAAAATAAAAAATATATAAATAATTAATACATGT
DNA 2: ACATGTATTAATTATTTATATATTTTTTATTTTTTT
B6: GTGCAC_negctrl_site245 (dsDNA)
DNA 1: TTTTATATCTAGTTTATATTTCTTAAATAAATAAAT
DNA 2: ATTTATTTATTTAAGAAATATAAACTAGATATAAAA
B7: GTGCAC_negctrl_site715 (dsDNA)
DNA 1: TTTTTTCTTTTATGTGAAATGTAATATTGTTATATA
DNA 2: TATATAACAATATTACATTTCACATAAAAGAAAAAA
B8: GTGCAC_site10459 (dsDNA)
DNA 1: TTATAAATGTGCGTAGTGCATAAACAAAAAAAAAAT
DNA 2: ATTTTTTTTTTGTTTATGCACTACGCACATTTATAA
B9: GTGCAC_negctrl_site667 (dsDNA)
DNA 1: GTAAGAATATTTATAAATGTATAATTTGTATTATTT
DNA 2: AAATAATACAAATTATACATTTATAAATATTCTTAC
B10: GTGCAC_negctrl_site528 (dsDNA)
DNA 1: AAACATCTTTACAACGTCCCTCCTTTTTTATGTACC
DNA 2: GGTACATAAAAAAGGAGGGACGTTGTAAAGATGTTT
B11: GTGCAC_negctrl_site723 (dsDNA)
DNA 1: AGCATTTTAAAAGAAAAAAAAAAAAAAAAAAAAATA
DNA 2: TATTTTTTTTTTTTTTTTTTTTTCTTTTAAAATGCT
B12: GTGCAC_negctrl_site27 (dsDNA)
DNA 1: ACATATGTATGAATATCAAAAAATCCCTATTTAATG
DNA 2: CATTAAATAGGGATTTTTTGATATTCATACATATGT
B13: GTGCAC_negctrl_site154 (dsDNA)
DNA 1: AATAGTATTCACAAAGTTTTATATAATAAATATAAA
DNA 2: TTTATATTTATTATATAAAACTTTGTGAATACTATT
B14: GTGCAC_negctrl_site519 (dsDNA)
DNA 1: AAAATACATATATATATATATAATATTGTTGTTAAA
DNA 2: TTTAACAACAATATTATATATATATATATGTATTTT
B15: GTGCAC_negctrl_site614 (dsDNA)
DNA 1: TATTTAGACATAACAAATAGACTAACAAAAGATTTA
DNA 2: TAAATCTTTTGTTAGTCTATTTGTTATGTCTAAATA
B16: GTGCAC_negctrl_site472 (dsDNA)
DNA 1: TATTTAAAATAATAACAAAATTAACATAAATATATA
DNA 2: TATATATTTATGTTAATTTTGTTATTATTTTAAATA
B17: GTGCAC_negctrl_site13 (dsDNA)
DNA 1: AAAAAAAAAAATATATTAAAATAAAAAATATTAACA
DNA 2: TGTTAATATTTTTTATTTTAATATATTTTTTTTTTT

Molecular target: T1, HDP1 homeodomain-like
Assay: gcPBM; about 25 ug protein; PBS, 1% milk, 0.2 mg/ml BSA, salmon testes DNA, 0.03% Triton X-100
Conditions: tags: N-terminal GST (pGEX-4T-1), kept; chain copies: 2; label: surface-attached array probe

Binder	binding signal
B1	6.34 ln median PBM intensity, better of two orientations
B2	5.78 ln median PBM intensity, better of two orientations
B3	6.2 ln median PBM intensity, better of two orientations
B4	6.37 ln median PBM intensity, better of two orientations
B5	6.32 ln median PBM intensity, better of two orientations
B6	6.07 ln median PBM intensity, better of two orientations
B7	6.24 ln median PBM intensity, better of two orientations
B8	10.2 ln median PBM intensity, better of two orientations
B9	6.29 ln median PBM intensity, better of two orientations
B10	6.32 ln median PBM intensity, better of two orientations
B11	5.84 ln median PBM intensity, better of two orientations
B12	6.3 ln median PBM intensity, better of two orientations
B13	5.94 ln median PBM intensity, better of two orientations
B14	6.31 ln median PBM intensity, better of two orientations
B15	6.13 ln median PBM intensity, better of two orientations
B16	6.24 ln median PBM intensity, better of two orientations
B17	6.05 ln median PBM intensity, better of two orientations

Molecular target: T2, SIP2 D1
Assay: as above
Conditions: tags: N-terminal GST (pGEX-4T-1), kept; label: surface-attached array probe

Binder	binding signal
B1	6.9 ln median PBM intensity, better of two orientations
B2	6.68 ln median PBM intensity, better of two orientations
B4	6.76 ln median PBM intensity, better of two orientations
B8	8.72 ln median PBM intensity, better of two orientations
B9	6.8 ln median PBM intensity, better of two orientations
B11	6.8 ln median PBM intensity, better of two orientations

Molecular target: AP2-I D3 (Plasmodium falciparum, UniProt Q8IJW6 910-1027)
Assay: as above
Conditions: tags: N-terminal GST (pGEX-4T-1), kept; label: surface-attached array probe

Binder	binding signal
B1	7.16 ln median PBM intensity, better of two orientations
B2	6.76 ln median PBM intensity, better of two orientations
B3	6.96 ln median PBM intensity, better of two orientations
B4	7.1 ln median PBM intensity, better of two orientations
B5	7.14 ln median PBM intensity, better of two orientations
B6	7.05 ln median PBM intensity, better of two orientations
B7	7.2 ln median PBM intensity, better of two orientations
B8	11.5 ln median PBM intensity, better of two orientations
B9	7.22 ln median PBM intensity, better of two orientations
B10	7.28 ln median PBM intensity, better of two orientations
B11	7.05 ln median PBM intensity, better of two orientations
B12	6.97 ln median PBM intensity, better of two orientations
B13	6.96 ln median PBM intensity, better of two orientations
B14	7.2 ln median PBM intensity, better of two orientations
B15	6.94 ln median PBM intensity, better of two orientations
B16	7.1 ln median PBM intensity, better of two orientations
B17	6.95 ln median PBM intensity, better of two orientations
